Data published in patent US6803501B2 (Monsanto Technology, LLC, priority 2000, dated 2004).
Changes are numbered by the printed parent chain. Names may count otherwise.

Assays:
[1] = target: T1, P. hybrida glypS (wt) EPSPS (Petunia hybrida, glyphosate sensitive, wild type) (Petunia hybrida, UniProt P11043); assay: kinetic characterization of EPSP synthase (Table 4); format: biochemical; settings: read-out: apparent Km for PEP; saturating shikimate-3-phosphate
T1 sequence (P11043 73-516): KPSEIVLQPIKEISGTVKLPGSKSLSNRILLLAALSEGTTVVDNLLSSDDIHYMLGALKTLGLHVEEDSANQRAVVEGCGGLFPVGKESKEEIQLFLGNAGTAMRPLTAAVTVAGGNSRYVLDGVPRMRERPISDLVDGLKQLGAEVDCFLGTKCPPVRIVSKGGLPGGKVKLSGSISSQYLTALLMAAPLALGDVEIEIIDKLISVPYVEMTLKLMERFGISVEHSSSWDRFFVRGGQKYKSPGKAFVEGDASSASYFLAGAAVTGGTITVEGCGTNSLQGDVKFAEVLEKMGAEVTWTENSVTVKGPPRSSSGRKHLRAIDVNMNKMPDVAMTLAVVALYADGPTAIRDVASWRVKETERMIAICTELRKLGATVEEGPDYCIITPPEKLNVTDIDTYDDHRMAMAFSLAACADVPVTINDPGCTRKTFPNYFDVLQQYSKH
Description: Final sample volumes are approximately 0.5 ml.

[2] = substrate: C=C(OP(=O)(O)O)C(=O)O; assay: as above; format: biochemical, Petunia hybrida; settings: other: saturating shikimate-3-phosphate; 25.0 °C
Description: Preparation of extracts and radiometric EPSP synthase assays are performed using methods adapted from published procedures (Padgette et al., J. Biol. Chem. 266:22364-22369 (1991). Crown regions are dissected from whole plants, pulverized under liquid nitrogen with a mortar and pestle, then stored at −80° C. prior to extraction. Homogenates are prepared from 0.5 g tissue per sample in 25 ml extraction buffer (100 mM TrisCl, 10% glycerol, 1 mM EDTA, 1 mM benzamidine, 1 mM dithiothreitol, 1 mM 4-(2-aminoethyl)-benzenesulfonyl floride HCl, 0.1 mM leupeptin, pH 7.4) at 4° C. using a model PT3000 Polytron homogenizer (Brinkman Instuments Inc., Westbury, N.Y.). Debris is removed by 0.2 μm filtration, then the resulting supernatant is concentrated and desalted using an Ultrafree-15 centrifugal filtration unit (cat.#UFV2-BGC-10, Millipore Corp., Bedford, Mass.). […] Protein concentrations are determined spectrophotometrically using the Bio-Rad protein assay reagent (cat.#500-0006, Bio-Rad Laboratories, Hercules, Calif.). EPSPS specific activities are determined by assaying 10 μl extract at 25° C. for 5-15 min. […] Reactions are quenched with the addition of 50 μl 9:1 ethanol: 0.1 M acetic acid. […]

[3] = substrate: C=C(OP(=O)(O)O)C(=O)O; assay: cells, lysate or membranes named; settings: other: saturating shikimate-3-phosphate; 25.0 °C
[4] = substrate: C=C(OP(=O)(O)O)C(=O)O; assay: purified protein, by the assay type; settings: other: saturating shikimate-3-phosphate; 25.0 °C

C=C(OP(=O)(O)O)C(=O)O [PEP, phosphoenolpyruvate]
Km [1]: 5 µM

B1: P. hybrida EPSPS variant glypR (Pro-Ser) (Petunia x hybrida; P178S) (protein)
chain: T1 sequence (P11043 73-516) with P106S
Km [2]: 44 µM

B2: P. hybrida EPSPS variant glypR (Gly-Ala, Pro-Ser) (Petunia x hybrida; G173A/P178S) (protein)
chain: T1 sequence (P11043 73-516) with G101A, P106S
Km [2]: 340 µM

B3: P. hybrida EPSPS variant glypR (Gly-Ala) (Petunia x hybrida; G173A) (protein)
chain: T1 sequence (P11043 73-516) with G101A
Km [2]: 200 µM

B4: Z. mays glypS (wt) EPSPS (Zea mays, glyphosate sensitive, wild type) (Zea mays) (protein)
chain: AGAEEIVLQPIKEISGTVKLPGSKSLSNRILLLAALSEGTTVVDNLLNSEDVHYMLGALRTLGLSVEADKAAKRAVVVGCGGKFPVEDSKEEVQLFLGNAGTAMRPLTAAVTAAGGNATYVLDGVPRMRERPIGDLVVGLKQLGADVDCFLGTDCPPVRVNGIGGLPGGKVKLSGSISSQYLSALLMAAPLALGDVEIEIIDKLISIPYVEMTLRLMERFGVKAEHSDSWDRFYIKGGQKYKSPKNAYVEGDASSASYFLAGAAITGGTVTVEGCGTTSLQGDVKFAEVLEMMGAKVTWTETSVTVTGPPREPFGRKHLKAIDVNMNKMPDVAMTLAVVALFADGPTAIRDVASWRVKETERMVAIRTELTKLGASVEEGPDYCIITPPEKLNVTAIDTYDDHRMAMAFSLAACAEVPVTIRDPGCTRKTFPDYFDVLSTFVKN
Km [3]: 5 µM

B5: E. indica glypS EPSPS (Eleusine indica, naturally occurring glyphosate sensitive, wild type) (Eleusine indica) (protein)
chain: AGAEEVVLQPIKEISGVVKLPGSKSLSNRILLLSALAEGTTVVDNLLNSEDVHYMLGALKTLGLSVEADKAAKRAVVVGCGGKFPVEKDAKEEVQLFLGNAGTAMRPLTAAVTAAGGNATYVLDGVPRMRERPIGDLVVGLKQLGADVDCFLGTDCPPVRVKGIGGLPGGKVKLSGSISSQYLSALLMAAPLALGDVEIEIIDKLISIPYVEMTLRLMERFGVKAEHSDSWDRFYIKGGQKYKSPKNAYVEGDASSASYFLAGAAITGGTVTVEGCGTTSLQGDVKFAEVLEMMGAKVTWTETSVTVTGPQREPFGRKHLKAIDVNMNKMPDVAMTLAVVALFADGPTAIRDVASWRVKETERMVAIRTELTKLGASVEEGPDYCIITPPEKLNVTAIDTYDDHRMAMAFSLAACADVPVTIRDPGCTRKTFPDYFDVLSTFVKN
Km [4]: 5 µM

B6: E. indica glypR (Pro-Ser) EPSPS (Eleusine indica, naturally occurring glyphosate resistant, serine for proline at position 107, SEQ ID NO:7) (Eleusine indica) (protein)
chain: B5 chain with P107S, P382L
Km [4]: 7 µM
